Measurements published in US9988424 (DUKE UNIVERSITY, dated 2018).
Substitutions are numbered along the chain they refer to.

Assays:
[1] = molecular target: AE.A244 V1V2 Tags (HIV-1); assay: ELISA
[2] = molecular target: T1, B.con gp140CF; assay: ELISA, OD405
T1 construct: also called B.con.env03 gp140CF

[3] = molecular target: T2, G.con gp140CF; assay: ELISA, OD405
T2 construct: also called G.con.env03 gp140CF

[4] = molecular target: B. 684-6 gp140C; assay: ELISA, OD405
[5] = molecular target: T3, B.63521_V1V2 Tags; assay: ELISA, OD405
T3 Env construct: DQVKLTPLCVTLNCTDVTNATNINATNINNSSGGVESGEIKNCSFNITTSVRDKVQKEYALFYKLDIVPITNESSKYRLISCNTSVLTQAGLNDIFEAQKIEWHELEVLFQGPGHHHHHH

[6] = molecular target: Con 6 gp120; assay: ELISA, OD405
[7] = molecular target: T4, D.9009SA V1V2 Tags; assay: ELISA, OD405
T4 Env construct: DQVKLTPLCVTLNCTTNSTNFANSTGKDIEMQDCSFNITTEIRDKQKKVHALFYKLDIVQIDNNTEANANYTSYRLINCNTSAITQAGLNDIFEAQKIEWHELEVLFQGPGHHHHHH

[8] = molecular target: T5, C.1086 gp140; assay: ELISA, OD405
T5 construct: also called C.1086gp140C

[9] = molecular target: T6, AE.con gp140CF; assay: ELISA, OD405
T6 construct: also called AE.con.env03 gp140CF

[10] = molecular target: T7, A.9004SS V1V2 Tags; assay: ELISA, OD405
T7 Env construct: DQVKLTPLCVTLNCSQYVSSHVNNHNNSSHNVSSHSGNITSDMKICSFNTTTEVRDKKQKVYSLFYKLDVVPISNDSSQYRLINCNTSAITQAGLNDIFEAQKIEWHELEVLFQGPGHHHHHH

[11] = molecular target: B.63521 gp140C; assay: ELISA, OD405
[12] = molecular target: AE.A244 V1V2 Tags (HIV-1)
[13] = molecular target: B.9021 gp140C (HIV-1); assay: ELISA OD405nm, bar chart, antibody concentration not given
[14] = molecular target: A.Q23 V1V2 tags (HIV-1); assay: as above
[15] = molecular target: T8, A.9004SS V1V2 Tags; assay: as above
T8 V1V2 tags construct: T7 Env construct

[16] = molecular target: B.040 gp140C; assay: as above
[17] = molecular target: D.9009SA V1V2 Tags; assay: as above
[18] = molecular target: T9, B.62357 140C; assay: as above
T9 construct: also called B.62357 gp140C

[19] = molecular target: B.63521_V1V2 Tags; assay: as above
[20] = molecular target: T10, AE.con env03 40CF; assay: as above
T10 construct: also called AE.con gp140CF; AE.con.env03 gp140CF

[21] = molecular target: T11, Con 6 120; assay: as above
T11 construct: also called Con 6 gp120

[22] = molecular target: T12, G.con 140CF; assay: as above
T12 construct: also called G.con gp140CF; G.con.env03 gp140CF

[23] = molecular target: T13, AE.A244 gD+ gp120 N160K (HIV-1); assay: ELISA
T13 construct: domain: gp120

[24] = molecular target: B.040 gp140C; assay: ELISA, OD405 at 10 ug/ml
[25] = molecular target: B.con gp140CF; assay: ELISA, OD405 at 10 ug/ml
[26] = molecular target: AE.con gp140CF; assay: ELISA, OD405 at 10 ug/ml
[27] = molecular target: T14, C.1086 gp140; assay: ELISA, OD405 at 10 ug/ml
T14 construct: also called C.1086gp140C

[28] = molecular target: D.9009SA V1/V2 tags; assay: ELISA, OD405 at 10 ug/ml
[29] = molecular target: G.con gp140CF; assay: ELISA, OD405 at 10 ug/ml
[30] = molecular target: T15, B.62357 gp140C; assay: ELISA, OD405 at 10 ug/ml
T15 construct: also called B.62357 140C

[31] = molecular target: B.Case A2 V1/V2 tags; assay: ELISA, OD405 at 10 ug/ml
[32] = molecular target: T16, A.9004SS V1/V2 tags; assay: ELISA, OD405 at 10 ug/ml
T16 V1V2 tags construct: T7 Env construct

[33] = molecular target: B.63521_V1/V2 tags; assay: ELISA, OD405 at 10 ug/ml
[34] = molecular target: Con 6 gp120; assay: ELISA, OD405 at 10 ug/ml
[35] = molecular target: AE.A244 V1V2 Tags (HIV-1); assay: ELISA; markers as in the legend printed on D00157
[36] = molecular target: 92TH023 gp120 (HIV-1)

B1: 697D (antibody, V domains shown)
VH: QVQLVQSGAEVKKPGSSVKVSCKASGGNFNTYTISWVRQAPGQGLEWMGRIIPIFGIVNPAQKFPGRVTINVDKSTNTAYMELSSLRSEDTAVYYCATSGVGLHFGYFDYWGQGTQVTVSS
VL: QSVLTQPPSVSGAPGQRVTISCTGSSSNIGAHYDVHWYQQLPGTAPKLLIYGNSNRPSGVPDRFSGSKSGTSASLAITGLQAEDEADYYCQSYDSSLSGYVFGTGTKVTVL
notes: also called mAb 697D; V2 conformational mAb 697D
~0.1 µg/mL: EC50 (read off the curve) [1]

B2: 697D reverted unmutated ancestor antibody (antibody, V domains shown)
VH: QVQLVQSGAEVKKPGSSVKVSCKASGGTFSSYTISWVRQAPGQGLEWMGRIIPILGIANYAQKFQGRVTITADKSTSTAYMELSSLRSEDTAVYYCATSGVGLHFGYFDYWGQGTLVTVSS
VL: B1 VL with H32G
notes: also called 697D RUA
no binding (tested: 10 ug/ml): binding result [2] | binding result [3] | binding result [4] | binding result [5] | binding result [6] | binding result [7] | binding result [8] | binding result [9] | binding result [10] | binding result [11]

B3: CH59 (antibody, V domains shown)
VH: EVQLVESGGGLVQPGRSLRLSCAASGFTFDDGAMHWVRQAPGKGLEWVSGISWNSNIIAYADSVKGRFTISRDNAKNSLYLEMNSLRVEDTALYYCAKDSPRGELPLNYWGQGTLVTVSS
VL: SYELTQPPSVSVSPGQTARITCSGDALPKNYAYWYQQKSGQAPVLVIYEDSKRPSGIPERFSGSSSGTMATLTISGAQVEDEADYYCYSTDSSGNHRVFGGGTKLTVL
notes: also called mAb CH59
0.03 nM: EC50 [23]
238000 M⁻¹ s⁻¹: kon [12]
0.00011 s⁻¹: koff [12]
no binding (tested: not given): binding result [13] | binding result [14] | binding result [16] | binding result [18] | binding result [19] | binding result [21] | binding result [22]
0.48 nM: Kd [12]
binds: binding result [15] | binding result [17] | binding result [20]

B4: CH59 reverted unmutated ancestor antibody (antibody, V domains shown)
VH: B3 VH with G32Y, N56G, I57S, A59G, E82Q, V88A, L107F, N108D
VL: B3 VL with N30K
notes: also called CH59 RUA; CH59_RUA
no binding (tested: 10 ug/ml): binding result [24] | binding result [25] | binding result [26] | binding result [27] | binding result [28] | binding result [29] | binding result [30] | binding result [31] | binding result [32] | binding result [33] | binding result [34]
~0.08 µg/mL: EC50 (read off the curve) [35]

B5: PG16 (antibody, V domains shown)
VH: QEQLVESGGGVVQPGGSLRLSCLASGFTFHKYGMHWVRQAPGKGLEWVALISDDGMRKYHSDSMWGRVTISRDNSKNTLYLQFSSLKVEDTAMFFCAREAGGPIWHDDVKYYDFNDGYYNYHYMDVWGKGTTVTVSS
VL: QSALTQPASVSGSPGQTITISCNGTSSDVGGFDSVSWYQQSPGKAPKVMVFDVSHRPSGISNRFSGSKSGNTASLTISGLHIEDEGDYFCSSLTDRSHRIFGGGTKVTVL
notes: also called mAb PG16; bnAb PG16
10 to 100 nM: IC50 [36]
